Experimental data taken from patent publication US7423125.
Substitutions are numbered along the chain they refer to. Numbers in names are those of the source. Blank lines part the entries; values can stand above or below the binder they belong to.

What was measured:
[1] = target: T1, KDR (VEGFR-2) expressed on porcine aortic endothelial cells (UniProt P35968 20-1356, limits assumed); test: competition with 125I-VEGF-CΔNΔCHis on PAE/VEGFR-2 cells
T1 construct: whole, on cells; also called KDR/Flk-1; PAE-KDR cells
Procedure: (§1) To study receptor binding, PAE/VEGFR-2 and PAE/VEGFR-3 cells were seeded into 24-well tissue culture plates (Nunclon), which had been coated with 2% gelatin in PBS. […] The binding was allowed to proceed at room temperature for 90 minutes. The plates were then transferred onto ice and washed three times with ice-cold PBS containing 0.1% BSA. The cells were then lysed in 1 M NaOH, the lysates were collected, and the radioactivity was measured using a γ-counter.

[2] = target: T2, Flt4 extracellular domain with C-terminal 6×His tag (Flt4EC), baculovirus-produced (human, UniProt P35916 25-775); test: depletion of conditioned medium on Flt4EC-Sepharose
T2 construct: extracellular domain; also called Flt4EC-Sepharose
T2 sequence: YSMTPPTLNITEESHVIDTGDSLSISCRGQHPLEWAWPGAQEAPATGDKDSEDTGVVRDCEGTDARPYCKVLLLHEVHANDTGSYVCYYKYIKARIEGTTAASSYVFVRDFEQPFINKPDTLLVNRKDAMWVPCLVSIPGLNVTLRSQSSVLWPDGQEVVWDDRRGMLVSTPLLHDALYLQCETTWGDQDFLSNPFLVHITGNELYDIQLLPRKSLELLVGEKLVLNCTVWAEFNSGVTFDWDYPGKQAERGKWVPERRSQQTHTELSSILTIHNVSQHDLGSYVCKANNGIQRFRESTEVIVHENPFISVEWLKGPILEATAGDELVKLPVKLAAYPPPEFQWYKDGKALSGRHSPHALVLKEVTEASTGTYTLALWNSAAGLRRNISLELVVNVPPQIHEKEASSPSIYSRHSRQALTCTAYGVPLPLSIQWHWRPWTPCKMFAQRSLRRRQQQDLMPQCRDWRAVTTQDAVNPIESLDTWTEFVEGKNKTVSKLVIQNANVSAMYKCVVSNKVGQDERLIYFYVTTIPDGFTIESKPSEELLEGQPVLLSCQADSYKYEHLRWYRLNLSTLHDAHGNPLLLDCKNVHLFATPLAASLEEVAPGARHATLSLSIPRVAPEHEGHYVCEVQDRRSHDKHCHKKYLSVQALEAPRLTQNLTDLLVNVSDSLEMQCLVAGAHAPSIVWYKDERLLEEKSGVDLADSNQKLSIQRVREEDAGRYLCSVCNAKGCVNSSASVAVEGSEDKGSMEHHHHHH

[3] = target: T3, Flt4 receptor tyrosine kinase (VEGFR-3) expressed on cells (human, UniProt P35916 25-1363); test: Scatchard analysis with 125I-labelled ligand
T3 construct: whole, on cells; also called LTRFlt4l; NIH 3T3-Flt4 cells
Procedure: as §1

[4] = target: T1, KDR (VEGFR-2) expressed on porcine …; test: Scatchard analysis with 125I-labelled ligand
Procedure: as §1

[5] = target: the molecule itself; test: homodimer formation, chemical crosslinking
[6] = target: T4, VEGFR-3EC-Ig (seven Ig loops of the VEGFR-3 extracellular domain fused to an immunoglobulin heavy chain … (UniProt P35916 25-775, limits assumed)); test: receptor binding studies
T4 construct: domain: seven Ig loops of the extracellular domain; also called VEGFR-3EC domain; not shown: immunoglobulin heavy chain constant region, not specified
T4 sequence (looked up): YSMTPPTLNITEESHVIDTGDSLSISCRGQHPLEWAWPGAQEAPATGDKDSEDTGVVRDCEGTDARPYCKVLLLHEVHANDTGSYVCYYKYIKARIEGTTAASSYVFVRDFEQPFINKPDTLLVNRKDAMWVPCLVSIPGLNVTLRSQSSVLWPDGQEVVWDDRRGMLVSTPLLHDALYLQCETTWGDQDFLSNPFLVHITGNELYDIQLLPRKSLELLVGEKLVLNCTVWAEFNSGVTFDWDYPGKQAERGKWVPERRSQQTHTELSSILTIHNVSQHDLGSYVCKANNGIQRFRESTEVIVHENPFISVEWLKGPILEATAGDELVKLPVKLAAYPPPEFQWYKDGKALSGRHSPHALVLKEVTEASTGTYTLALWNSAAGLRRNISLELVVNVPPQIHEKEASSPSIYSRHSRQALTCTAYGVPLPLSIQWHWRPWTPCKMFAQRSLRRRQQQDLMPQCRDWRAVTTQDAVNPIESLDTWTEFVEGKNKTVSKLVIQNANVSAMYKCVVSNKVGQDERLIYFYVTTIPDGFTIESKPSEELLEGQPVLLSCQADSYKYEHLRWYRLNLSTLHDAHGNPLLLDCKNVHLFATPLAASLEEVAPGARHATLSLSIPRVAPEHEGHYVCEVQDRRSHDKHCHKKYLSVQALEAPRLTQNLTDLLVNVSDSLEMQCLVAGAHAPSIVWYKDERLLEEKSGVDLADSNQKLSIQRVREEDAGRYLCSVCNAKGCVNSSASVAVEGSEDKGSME

[7] = target: T5, VEGFR-2EC-Ig (three Ig loops of the VEGFR-2 extracellular domain fused to an immunoglobulin heavy chain … (UniProt P35968 20-327, limits assumed)); test: receptor binding studies
T5 construct: domain: three Ig loops of the extracellular domain; also called VEGFR-2EC domain; not shown: immunoglobulin heavy chain constant region, not specified

chemical crosslinking = target: the molecule itself; test: chemical crosslinking
[8] = target: T5, VEGFR-2EC-Ig (three Ig loops of the …); test: pull-down of 35S-labelled protein with VEGFR-2EC-Ig
Procedure: An aliquot of the transfected cells were metabolically labelled for 6 hours with 100 microcuries/ml of the PRO-MIX™ L-[^35S] in vitro cell labelling mix (Amersham).

T5 sequence (P35968 20-327 limits assumed): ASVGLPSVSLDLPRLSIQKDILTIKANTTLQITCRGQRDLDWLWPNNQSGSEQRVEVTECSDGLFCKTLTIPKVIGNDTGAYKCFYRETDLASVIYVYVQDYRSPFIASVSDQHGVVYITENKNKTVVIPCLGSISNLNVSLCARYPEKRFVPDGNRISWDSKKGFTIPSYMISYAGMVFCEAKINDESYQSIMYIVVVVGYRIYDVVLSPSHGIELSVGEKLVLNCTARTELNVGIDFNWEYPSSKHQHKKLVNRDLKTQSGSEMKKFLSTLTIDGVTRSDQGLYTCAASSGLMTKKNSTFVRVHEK
T1 sequence (P35968 20-1356 limits assumed): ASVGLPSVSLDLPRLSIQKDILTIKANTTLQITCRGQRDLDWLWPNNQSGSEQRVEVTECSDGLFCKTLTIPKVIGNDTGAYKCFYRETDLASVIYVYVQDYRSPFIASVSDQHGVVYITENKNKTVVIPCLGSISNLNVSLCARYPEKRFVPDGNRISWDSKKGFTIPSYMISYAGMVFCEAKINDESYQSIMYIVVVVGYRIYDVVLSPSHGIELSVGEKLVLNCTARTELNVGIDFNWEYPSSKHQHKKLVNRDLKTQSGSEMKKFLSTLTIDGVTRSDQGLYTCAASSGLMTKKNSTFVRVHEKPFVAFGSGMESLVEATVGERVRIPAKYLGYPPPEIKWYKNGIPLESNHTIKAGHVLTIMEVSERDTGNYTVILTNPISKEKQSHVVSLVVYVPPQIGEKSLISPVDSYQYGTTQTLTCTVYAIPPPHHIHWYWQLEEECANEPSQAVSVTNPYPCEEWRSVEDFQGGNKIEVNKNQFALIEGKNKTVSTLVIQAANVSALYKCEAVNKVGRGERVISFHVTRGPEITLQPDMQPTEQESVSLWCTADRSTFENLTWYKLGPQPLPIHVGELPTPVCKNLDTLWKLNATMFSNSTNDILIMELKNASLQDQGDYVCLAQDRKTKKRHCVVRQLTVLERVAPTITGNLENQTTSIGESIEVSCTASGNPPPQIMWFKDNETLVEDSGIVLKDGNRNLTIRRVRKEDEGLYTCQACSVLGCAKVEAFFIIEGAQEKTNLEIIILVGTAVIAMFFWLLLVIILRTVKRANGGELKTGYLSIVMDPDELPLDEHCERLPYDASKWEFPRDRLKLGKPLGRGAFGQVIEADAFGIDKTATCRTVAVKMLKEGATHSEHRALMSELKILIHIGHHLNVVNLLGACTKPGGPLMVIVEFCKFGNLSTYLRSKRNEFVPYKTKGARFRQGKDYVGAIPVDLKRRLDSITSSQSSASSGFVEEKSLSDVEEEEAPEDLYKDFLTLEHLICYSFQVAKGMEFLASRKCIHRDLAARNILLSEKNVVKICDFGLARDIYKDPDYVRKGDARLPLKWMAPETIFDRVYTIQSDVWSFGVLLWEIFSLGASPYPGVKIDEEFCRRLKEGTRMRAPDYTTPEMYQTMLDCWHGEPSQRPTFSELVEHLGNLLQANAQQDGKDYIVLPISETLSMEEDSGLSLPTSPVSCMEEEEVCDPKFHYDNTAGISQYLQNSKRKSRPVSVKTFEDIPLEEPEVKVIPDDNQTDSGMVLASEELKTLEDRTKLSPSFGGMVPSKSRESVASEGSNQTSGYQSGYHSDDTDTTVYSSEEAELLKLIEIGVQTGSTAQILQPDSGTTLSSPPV

B1: VEGF-C R226,227S (ligand)
chain: FESGLDLSDAEPDAGEATAYASKDLEEQLRSVSSVDELMTVLYPEYWKMYKCQLRKGGWQHNREQANLNSRTEETIKFAAAHYNTEILKSIDNEWRKTQCMPREVCIDVGKEFGVATNTFFKPPCVSVYRCGGCCNSEGLQCMNTSTSYLSKTLFEITVPLSQGPKPVTISFANHTSCRCMSKLDVYRQVHSIISSSLPATLPQCQAANKTCPTNYMWNNHICRCLAQEDFMFSSDAGDDSTDGFHDICGPNKELDEETCQCVCRAGLRPASCGPHKELDRNSCQCVCKNKLFPSQCGANREFDENTCQCVCKRTCPRNQPLNPGKCACECTESPQKCLLKGKKFHHQTCSCYRRPCTNRQKACEPGFSYSEEVCRCVPSYWKRPQMS
notes: The C-terminal cleavage site is destroyed; N-terminal processing may still occur; also called non-processed VEGF-C R226,227S
binding result [1]: binds

B2: Flt4 ligand of about 23 kD from PC-3 cell conditioned medium (naturally processed VEGF-C) (ligand)
chain: TEETIKFAAAHYNTEILKSIDNEWRKTQCMPREVCIDVGKEFGVATNTFFKPPCVSVYRCGGCCNSEGLQCMNTSTSYLSKTLFEITVPLSQGPKPVTISFANHTSCRCMSKLDVYRQVHSIIRR
notes: also called 23 kD polypeptide; 21-23 kD form (PC-3)
binding result [2]: binds

B3: VEGF-C ΔNΔCHis (ligand)
chain: TEETIKFAAAHYNTEILKSIDNEWRKTQCMPREVCIDVGKEFGVATNTFFKPPCVSVYRCGGCCNSEGLQCMNTSTSYLSKTLFEITVPLSQGPKPVTISFANHTSCRCMSKLDVYRQVHSIIHHHHHH
notes: the yeast protein was iodinated as tracer; also called VEGF-C ΔCΔNHis; recombinantly-matured VEGF-C
Kd [3]: 0.135 nM | Kd [4]: 0.41 nM | binding result [5]: binds

Further lines, with some results ahead:

binding result [6]: no binding | binding result [7]: no binding
B4: VEGF-CΔNΔCHis C156,165S (ligand)
chain: B3 chain with C54S, C63S
notes: also called C156,165S form
binding result (chemical crosslinking): no binding

binding result [8]: no binding | binding result [1]: no binding
B5: VEGF-CΔNΔCHis C156S (ligand)
chain: B3 chain with C54S
notes: also called VEGF-CΔNΔCH is R156S (as printed once); VEGF-C ΔNΔC156S
binding result [5]: binds

binding result [6]: no binding | binding result [7]: no binding
B6: VEGF-CΔNΔCHis C165S (ligand)
chain: B3 chain with C63S
notes: also called C165S form
binding result (chemical crosslinking): no binding
